The nature of the series: label from the status in PepcDB records.
With “MAENVGSDSSEFESISSSQKSYLKNCPFAGHEALPTKSTDSDNTEVLGNQISPAVVKTPILSFSSPTSLDSINDDVFRTPPENASLSSAAESEPRVGVSEIKLQGGSNLTTPFSMAETTLVSSSPSLPAENVRVSESNLKSSSSTAKTTPVSASPSVNARVSESNLNSSSSTTPVSVSPSEKVRVFETTPVSASPSEKVRVFETKCHSDSGDSVPLSSSPPSVAADDVRVPAKHLDSDSSPPTAIGRTMVLVKQRISASDNSASSSASEGTKVSKTENSGEVLPFKEIIEALLRNSGEKLNERDDKVSYVEILKQCGLKFPK”, the protein production entry was “failed”.

With “MISKFIEKRMLNMLDEWYSAMSKRKMNHVCTLKEKIDQHLPKIKKNTKLWMRYQLFQARHQLLFENQNGLDSLFDGLYGLEDKMDDELKYYLYFFSGLYEMVKTAPKHAVHHFKKAEQYLAAIHNTFEAADLYYQTAGAYYLMKSPPLSVQYVKKALHIYLHQFGYIKKVITCKLLLAVNYIDQERYEKAEQLFKEIIKKTQQLHDENLLCHAYYNLGFLKATEKKDQEALLYFRKVLKNQEFEMNSPVSYLHCVYESVRALFKTGNITEAKAVLQKGKELSEKVDIQTIYLKLKTLEALYTSAEDPYEQLLEYVLELEKIEAWVDLEVLLEDITEYYKKKDDFEKAAFFIMRG”, the protein production entry is given as “failed”.

Consider “MFMIKVITPETNHPKEGGILSALVSIYNCTIHIRKPRFTADQYKKYLHDHNQLLSHFVLHEHHSLAKEFPVMGVHLKELDRINPAQVHPDIKIISTSIHSIADAGNLSHPFEYIFYSPLFQSISKENYGTNNSLADLKKTVSELKEQTGIPIIGLGGIYEANIDLVKKSGFDGAALLGAVWVQSDPLAAFGRIASMILEHHHHHH”, for which the protein production result is on record as “failed”.

With “MRKKGNKLIEFVSKIMALVMAVTLLSSLPVQNVLANDSKETKGEEYEIYPIPQSIKYDNGTVTLGTDANVVFEEGIDEATKNRLLEVLSIKGINYEESNEIKEDKTNFLIGINNSEGVVDKYFTDNNLANDSHFENHDAHVVSVKGNVIAVLGKNTDSAFYGITSLKAIFNQLEGNELKELLIEDYSDGQWRGFIEGYYGIPWSNENRKDLMKFGGDFKMNSYIFAPKDDQYHSLKWREPYPAEKLAEIKEMVDVGIATKNKFIWTIHPFLKDGMNFGSEESYKADLEKIIAKFEQLYSVGVRQFGVLADDAEGEANNQVKLMEDLEKWRLQKGDVYEFIFVPKVYTKESAGGDVNNEYLKTIGTMPETIDIMWTGDVILGYVTQETFEFFEEAVGRQAFMWLNWPVNDINNKRLLMGKGEMLDPTVTNFKGIVTNPMQEAQASKVALFAIADYGWNRADFDMDKSWKDSFKYIEPDASEELYTFAKHMSDPAPNWHGLSLEESEELRPVIEEFTRKLWEKESVLDYSKVILDEYQEILDATNNFATKSKNELLKSEIKGWVDSLRDLAESTIAYINSAVAFEKGNYEEAMKYYVLGEDEYTASRSHRTPVINGQSRPEPGTRHLIPFIKDLSKIIGDNIDQVINPDTTKLTLRPYTNMSPLYWGHVQNIADGDNTRYSCMWIRNSAKEGDYVAVELNEVTKVNSITFEQGQDEGDAFNYGKFQYSMDGENWIDVDGVDYGPKMHKIVVEGLDITAKYLRFIPTKEILNNWIAVREFSVNKKDENNMKVNAYTNVEALAKNEVSISEEKATLSDLNDVTLSKGEYVGIKLNKLREVTNIVSDFTNNDNLTLETSINGVEWVEAKTLSETINARYVRIINNTEKDVTFNLNKLEAEYSNNDVNFDIRPTAEAKFEPKNLIDGKLNTAFKPLESAPKSGQLTYRISDKTDIKKFTIVQNPNTISNAIVSVRNENGWKEVGSLGKSFNEFNTEDFENVFEIKVEWDGFAPTIYEIGLSTIKEEVQVDKSKLEEAIKEVEKLKEEDYTKDSWSNLIEKLNLAKEVLSKEDATQDEVDNAIKALNEAISGLVKKDETEGPVDPEKPVDPENPDNTEKPENPEGTDKPQTPDKPEGNLPNTGGASSSIFLQLGVVMMASGAFVLKRKKR”, the protein production result was “failed”.

For “MVSFDHATLGYITFVLMNFSMLSGAFIFLSKKKQHWIKVHLLVSILTYIFMVWTIWVVR”, the protein production entry is listed as “failed”.

As for “EVALRHPQSPKPCLIGNCQGGWAILTLMAANPDVAGVAVVNGAPLSYWGGENGKNPMRYIGGIWGGSWIAQMAGDLGNGKFDGANLVMNFEMANPKVTYWSKYYNLFANLDKEEIRFLNFERWWGGFSLLNVNEMRGIIDNLFIGNKLVHGKIPLGQSGNNLDLRNISVPVIIFCSEGDNITPPQQALNWVSDLYSNTLEIKLDGQVIVYLIHKSVGHLGIFVSSEVAKKEHNQIIDLLN”, the protein production entry is on record as “not failed”.

Regarding “MKLTLKNLSMAIMMSTIVMGSSAMAADSNEKIVIAHRGASGYLPEHTLPAKAMAYAQGADYLEQDLVMTKDDNLVVLHDHYLDRVTDVADRFPDRARKDGRYYAIDFTLDEIKSLKFTEGFDIENGKKVQTYPGRFPMGKSDFRVHTFEEEIEFVQGLNHSTGKNIGIYPEIKAPWFHHQEGKDIAAKTLEVLKKYGYTGKDDKVYLQCFDADELKRIKNELEPKMGMELNLVQLIAYTDWNETQQKQPDGSWVNYNYDWMFKPGAMKQVAEYADGIGPDYHMLIEETSQPGNIKLTGMVQDAQQNKLVVHPYTVRSDKLPEYTPDVNQLYDALYNKAGVNGLFTDFPDKAVKFLNKE”, the protein production entry was “not failed”.

For “MFSEVEMARDVAICAKHLNGQSPHQPILCRLLQDLIHEKACREHGFYLGITALKSIGNNKNNNIDNENNHQAKILTFPVSFTCRTFLPARGDILQGTVKKVLWNGAFIRSGPLRYAYLSLLKMPHYHYVHSPLSEDEKPHFQKDDLSKIAVGVVVRFQVLAVRFKERPHKRRNDYYVLATLEGNGSFGPISLTGSDEPYM”, the protein production entry is “failed”.

Turning to “MQFRSIIRIVGLLLALFSVTMLAPALVALLYRDGAGVPFVTTFFVLLFCGAMCWFPNRRHKHELKSRDGFLIVVLFWTVLGSAGSLPFLIADNPNISVTDAFFESFSALTTTGATVIVGLDELPKAILFYRQFLQWFGGMGIIVLAVAILPVLGIGGMQLYRAEIPGPVKDTKMTPRIAETAKALWYIYLSLTIACAVAFWLAGMTPFDAISHSFSTIAIGGFSTHDASMGYFDSYAINLITVVFLLISACNFTLHFAAFASGGVHPKYYWKDPEFRAFIFIQVLLFLVCFLLLLKHHSYTSPYDAFDQALFQTVSISTTAGFTTTGFADWPLFLPVLLLFSSFIGGCAGSTGGGMKVIRILLLTLQGARELKRLVHPRAVYTIKVGGSALPQRVVDAVWGFFSAYALVFVVCMLGLIATGMDELSAFSAVAATLNNLGPGLGEVALHFGDVNDKAKWVLIVSMLFGRLEIFTLLILLTPTFWRS”, the protein production entry is given as “not failed”.

Regarding “MRIETDRLVIRDFEERDAERLYDYLANPPVRCFLDEKINSYDEALRKIRERQGQSDQGDFYAVCLKNAEWLIGEVFWVKEEPDTYSIGWNFNLNYGGKGYATEAVKAAIEELFRGGARRIYAYVEEDNLPSQRLCDRLGMRREGLFLEFISFINNPDGSPRYENTYQYAILKREWLGEGKAT”, the protein production result is “failed”.

Regarding “MDRNLKIFITVMLILSVISQFLPFKRDAVSLINVITNLAAFMGLSYACIYSRKVYPHLYLTLLLLSAAQFFSFLGDFTWFILESILSLNPFPSVADLFYLLYYPIFAAGIFTIPIKRYSDLRSIIDLLIILVASASAAWVFLLEPTVFAGGDFTEVLVSTLYVLGDLLIVFMIMDLIINKLGHLRSRTLHVFLASIIILLAADISFTYQNLTGIYAGGTPQDLLWAFSYILLLIAVNEFFKEDWSKPLYVEKKVTAVTYTPYIFIILFYLLTAYSVIKGGAEKSTVLLVSLGFIIVLFILRQHLSMKENMALLNDVENERRRAENYLEVAGSLIMVLDEKTRVKLINRRGLEILECDAGEVAGKNWFMTFVPPEDRGWREKLYTEKISSGSKGYHLTGEILTCKGDRKTVTWHVVFLREDGEFRGSIISGDDITELQRATRALEMSEMRYREIFELAPSPIISVGDDLIIRDCNRRAESVLGYQRGELIGRNLMDLIHPEDAGEDFEGERRLLRSNGDVIYADIGVARVGDERIIIIEDQTEIRRSLQEKELLLREIHHRVKNNLQIISSLLSIQERQLESEELSDVLRESRERIRSIALVHEHLYRSTNLRTIRIRNYLNNILSKLSQGQTHGKDVRISSSIEDLEFNLETSLPIGLMVNELVSNSLKHSGADNITVELRSLNGTLELTVKDDGIGLESPEVLEKSGSMGWYLIRALTDQLDGELKIETEDGLSVSLRFRELGYRERY”, the protein production entry is given as “failed”.

In the case of “MLRRIVALAAVAAGGMMLSKTFRKSRDSGYTSSVENFIEVNVPVSTAYNQWTQFEEFPRFMKGVREVQQIDDTHLHWRAEIAGKEEEWDAEITEQVPDQRIAWHSTNGAKNSGVVSFYGISDSKTRVVLKMDYGPRTFLEGLGDALGAVKARTSEDLRCFKEFLESRGKETGAWRGSVGQH”, the protein production entry is on record as “failed”.
